The values that follow come from publication doi:10.1101/2025.03.18.643936.

“And” between values parts separate entries of the source, which are not always exact repeats. Identical values can stand only once.

This experiment concerns the target the i20S and the s20S (human). Put plainly: mass photometry.

Take “recombinantly expressed and purified human PA200 (from UniProt Q14997 1-1843) (natural protein)”: the Kd, first binding event is 0.02 µM and 0.03 µM.
